Results as given in the Human Domainome abundance scans (Beltran et al. 2025).
± gives the uncertainty stated by the source.

B1: 1-phosphatidylinositol 4,5-bisphosphate phosphodiesterase gamma-2, residues 772 to 827; numbered along this chain, P16885 (parent)
chain: RTVKALYDYKAKRSDELSFCRGALIHNVSKEPGGWWKGDYGTRIQQYFPSNYVEDI

Variants of: B1
Assay: abundance fitness (aPCA) (normalised: wild type 0, dead -1); higher = more abundant; growth selection in yeast, the domain comes from the species named
Details: Homo sapiens

Abundance fitness: each site, then its substitutions
Y40: K 0.189 ± 0.11 | N -0.284 ± 0.098 | C -0.061 ± 0.089 | L 0.041 ± 0.068 | T -0.265 ± 0.09 | A -0.3 ± 0.13 | V -0.216 ± 0.069 | I 0.107 ± 0.12 | H 0.031 ± 0.17 | W -0.713 ± 0.15 | R -0.498 ± 0.067
G41: Q -0.217 ± 0.1 | D 0.069 ± 0.077 | P -1.01 ± 0.13 | H -0.151 ± 0.38 | K -0.012 ± 0.08 | T -0.699 ± 0.17 | M -0.268 ± 0.12 | A -0.273 ± 0.061 | R -0.234 ± 0.044 | I -0.566 ± 0.37 | V -0.889 ± 0.078 | E -0.117 ± 0.068 | Y -0.557 ± 0.35 | C -0.581 ± 0.21 | S -0.627 ± 0.14 | F -0.54 ± 0.23
S50: R 0.035 ± 0.062 | L -0.737 ± 0.13 | M 0.071 ± 0.1 | T -0.352 ± 0.071 | Y 0.057 ± 0.098 | D -0.506 ± 0.12 | C -0.18 ± 0.1 | G -0.093 ± 0.058 | W -0.412 ± 0.088 | H -0.163 ± 0.19 | F -0.181 ± 0.061 | I -0.261 ± 0.096 | A 0.221 ± 0.095 | P -0.241 ± 0.081 | Q -0.398 ± 0.15 | K 0.103 ± 0.12
T42: R 0.03 ± 0.063 | Y -0.385 ± 0.27 | W -0.186 ± 0.045 | L -0.155 ± 0.079 | D 0.076 ± 0.068 | S 0.054 ± 0.086 | K -0.243 ± 0.13 | E 0.168 ± 0.081 | F -0.152 ± 0.043 | A -0.065 ± 0.06 | Q -0.262 ± 0.21 | C -0.227 ± 0.17 | P 0.147 ± 0.13 | V -0.165 ± 0.065 | M -0.01 ± 0.086 | G 0.078 ± 0.052 | I -0.021 ± 0.074 | N 0.139 ± 0.13
P32: E 0.126 ± 0.082 | Q 0.022 ± 0.11 | G -0.115 ± 0.044 | S -0.011 ± 0.08 | L -0.014 ± 0.078 | C -0.275 ± 0.24 | Y -0.278 ± 0.31 | V -0.315 ± 0.084 | W -0.406 ± 0.058 | N 0.256 ± 0.3 | M 0.093 ± 0.099 | K -0.229 ± 0.15 | A 0.056 ± 0.073 | F -0.247 ± 0.26 | R -0.166 ± 0.085 | D -0.087 ± 0.14
Y47: M -0.417 ± 0.19 | R 0.076 ± 0.063 | G -0.604 ± 0.098 | V -0.34 ± 0.076 | L 0.002 ± 0.056 | S -0.293 ± 0.082
